This data set concerns the molecule itself. Nature of the data set: SEC; Superdex 75 column, 20 mM Tris-Cl (pH 7.5), 150 mM NaCl; profile compared with protein size standards (44 and 17 kDa). (Size exclusion chromatography separates by hydrodynamic size, large species first.)

B1: Rv1738 (uncharacterized protein Rv1738; potential hibernation factor) (natural protein)
chain: MCGDQSDHVLQHWTVDISIDEHEGLTRAKARLRWREKELVGVGLARLNPADRNVPEIGDELSVARALSDLGKRMLKVSTHDIEAVTHQPARLLY
As to B1, the stoichiometry N (usually a count of units in the complex or per binding partner) turned out to be 2.
